Source: the supplement of paper PMC10724198
± gives the standard deviation of the averaged measurements.

Test system: Saccharomyces cerevisiae
Experiment: protein stability index of tFT-peptide fusion (C-terminal peptide) (PSI (0-1 scale)); higher = more stable (slower turnover)
Settings: genetic background: wild type; temperature: 30 C
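Note: PSI is a weighted mean of sequencing reads over stability bins, variants kept only with over 10 reads, mCherry proximal and sfGFP distal, peptide attached via GGGS linker.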

Sequence | protein stability index
KIENQKKRLQRT | 0.708 ± 0.028
KIGVHRGRGGRM | 0.614 ± 0.13
KIKESIKIKKKR | 0.6789 ± 0.0027
KIMIGQPDGINV | 0.65 ± 0.015
KIQLTTMKNHGK | 0.685 ± 0.013
KIRRIHRNVVKG | 0.786 ± 0.055
KKEEQEKKNRNK | 0.711 ± 0.027
KKEGIWEGERVG | 0.724 ± 0.011
KKELKKRNKAKK | 0.66 ± 0.012
KKENKERNNEYE | 0.708 ± 0.081
KKGKQQKTEKNG | 0.802 ± 0.26
KKGKSKKKGKKT | 0.6906 ± 0.0018
KKGVSNKVSGFT | 0.719 ± 0.014
KKIKKKKNKKQE | 0.735 ± 0.075
KKKIERKKNKEK | 0.743 ± 0.071
KKKKEKNKHNIR | 0.72 ± 0.009
KKKKKIEQRKQE | 0.67 ± 0.017
KKKKKKKESRSS | 0.68 ± 0.045
KKKKKKKKNMKR | 0.683 ± 0.024
KKKKKKKKTNKE | 0.656 ± 0.11
KKKKKKKMTNLK | 0.809 ± 0.054
KKKKKKKQIKKK | 0.747 ± 0.026
KKKKKKKRNGAP | 0.667 ± 0.05
KKKKKKRIREKR | 0.721 ± 0.048
KKKKKKRNKQKN | 0.752 ± 0.043
KKKKKSEIPKIT | 0.686 ± 0.084

Sequence | protein stability index
KKKKNKLRNKQE | 0.656 ± 0.015
KKKKNNKETKNK | 0.705 ± 0.015
KKKKPKNKSKDK | 0.634 ± 0.095
KKKKPKQKQKET | 0.686 ± 0.016
KKKKTKKKKINI | 0.605 ± 0.0077
KKKKTKKSKQKK | 0.721 ± 0.0089
KKKLKRTIKKIA | 0.481 ± 0.034
KKKNEKQNRLKN | 0.769 ± 0.029
KKKNKENKKKKK | 0.737 ± 0.023
KKKREKKKENTK | 0.7108 ± 0.0067
KKKRIERKEKGE | 0.676 ± 0.059
KKKRMKIKCIGI | 0.647 ± 0.063
KKKTIKNNERSK | 0.69 ± 0.071
KKKYKKNKKKNK | 0.65 ± 0.033
KKLGLRLTFLHC | 0.564 ± 0.043
KKNEEKRRGEGK | 0.67 ± 0.049
KKNERKEKNNTN | 0.673 ± 0.014
KKNETKQEKNTR | 0.689 ± 0.026
KKNEVIKKNLRK | 0.616 ± 0.063
KKNIKKKRNIEK | 0.625 ± 0.04
KKNIKKKTKQKE | 0.696 ± 0.007
KKNKNKEYCKVK | 0.734 ± 0.082
KKNNNINKHTST | 0.6652 ± 0.0058
KKNYEKPIRKYQ | 0.642 ± 0.02
KKQHTKKKKKKR | 0.752 ± 0.041
KKQKKQKKKSHK | 0.715 ± 0.047

Sequence | protein stability index
KKRDKKKLRRVE | 0.672 ± 0.044
KKRGKNSKAQRE | 0.694 ± 0.013
KKRHYSCYKNTN | 0.725 ± 0.015
KKSIVEARLSNM | 0.58 ± 0.075
KKTNTQTKKKTK | 0.709 ± 0.075
KKTQKNIKKKAK | 0.679 ± 0.025
KKTRRGSNKKEG | 0.681 ± 0.025
KKTSQKQKGKRQ | 0.671 ± 0.12
KLCGIYMVGGKK | 0.65093 ± 0.00038
KLGLLKVRVCDG | 0.608 ± 0.0061
KLGRWGARGSGR | 0.655 ± 0.021
KLKTKQNKERNK | 0.757 ± 0.076
KLREKKLLKIAE | 0.679 ± 0.042
KLSSQAWMISEK | 0.695 ± 0.055
KLVGFRPHAWWF | 0.701 ± 0.016
KNIIEKKIKKRK | 0.711 ± 0.0049
KNKKEKKKVKRT | 0.687 ± 0.026
KNKKKKKTKKKK | 0.792 ± 0.079
KNKKKNKNNKKK | 0.7048 ± 0.00079
KNKKNKKKTPTT | 0.727 ± 0.013
KNNVVKIEEEKK | 0.751 ± 0.013
KNRHWNKKIRKC | 0.6533 ± 0.0065
KNRKSYTINSRK | 0.656 ± 0.055
KPKANTEKIPIQ | 0.68 ± 0.018
KPKHNKKILEKK | 0.671 ± 0.037
KPKLSHPQPLRI | 0.699 ± 0.016

Sequence | protein stability index
KPLPPPEFRPHP | 0.69 ± 0.02
KPRFRATPRQTT | 0.713 ± 0.037
KPRLARLSLSLL | 0.784 ± 0.14
KQKQRKERIKRK | 0.688 ± 0.069
KQVIIEKSIQQR | 0.661 ± 0.051
KRAPEPPTPPAP | 0.672 ± 0.015
KRGKNKKRKQKK | 0.716 ± 0.0076
KRNKITKKDRIN | 0.613 ± 0.031
KRNKKCKKIKKK | 0.677 ± 0.11
KRRNKEHNKIRD | 0.652 ± 0.052
KSAGNWSKGKRE | 0.713 ± 0.083
KSGGWLWVGGGG | 0.748 ± 0.039
KSHKKKKKNKNF | 0.539 ± 0.0035
KSKGGGTEPNRR | 0.695 ± 0.009
KSKKKKKNKTNR | 0.6792 ± 0.0022
KSKRKKKKQTKR | 0.653 ± 0.024
KSVGKGIIQLRL | 0.726 ± 0.042
KTECMAIEKTLV | 0.686 ± 0.033
KTENGRSNSETR | 0.686 ± 0.074
KTGLMRGHEVAS | 0.673 ± 0.03
KTGNKKQRKKKV | 0.753 ± 0.032
KTHTIGPSPYYD | 0.649 ± 0.0088
KTKGPKSKPKRK | 0.6563 ± 0.0046
KTKKNKITFKNK | 0.759 ± 0.02
KTNIKKQSKISK | 0.778 ± 0.18
KTQKNQKLTRSK | 0.769 ± 0.12

Sequence | protein stability index
KTRKKEKKPSRK | 0.6233 ± 0.0036
KVDGTIDSRVMS | 0.683 ± 0.089
KVRAGLGIRITQ | 0.674 ± 0.021
KVRSFGGLFVKG | 0.68 ± 0.022
KVSCGGAGDSLG | 0.693 ± 0.022
KVSIINAWKEKI | 0.679 ± 0.044
KVVVWRAKTSHS | 0.692 ± 0.068
KWLAQLEHEKYN | 0.696 ± 0.025
KWMKKIKTRRQI | 0.609 ± 0.018
KYHIKKPSTLEI | 0.683 ± 0.01
KYKKNNNKKQNQ | 0.704 ± 0.097
KYYRKKNIEKEN | 0.575 ± 0.017
LACCGGLVTWVL | 0.6891 ± 0.0046
LACTSPLLLRFR | 0.673 ± 0.023
LADFMFCALPLC | 0.658 ± 0.045
LADRTREFSNPA | 0.6466 ± 0.0054
LAFFPRGTPPHS | 0.67 ± 0.029
LAGGGWGGACGE | 0.655 ± 0.017
LAGLLMSPNMSP | 0.697 ± 0.025
LAGVEMWVGLEV | 0.61 ± 0.059
LALKYLGQLIGA | 0.594 ± 0.024
LALPSWVRYASR | 0.694 ± 0.016
LALRMLWSIVRT | 0.599 ± 0.079
LAMALRGGLYFS | 0.701 ± 0.011
LAPALPPQPPSH | 0.658 ± 0.023
LAPPLPMPPPLA | 0.682 ± 0.02

Sequence | protein stability index
LAPPPAAPLSHS | 0.697 ± 0.018
LAPPPPARPALP | 0.699 ± 0.0076
LAPPTTAGPRPP | 0.599 ± 0.01
LARASLVLPPSG | 0.648 ± 0.093
LASPDPSPLVVP | 0.678 ± 0.02
LASSVRSSASVP | 0.739 ± 0.034
LAYITTTPALAS | 0.581 ± 0.048
LCAPPPSLSPFV | 0.708 ± 0.025
LCCPVFFAFCFP | 0.683 ± 0.094
LCFRSLFLCSLF | 0.577 ± 0.13
LCFVFDLASLCW | 0.539 ± 0.04
LCGPKIGFVVSR | 0.704 ± 0.04
LCGVWWGWWVGL | 0.576 ± 0.026
LCLDNFSSSWPI | 0.719 ± 0.02
LCPSLLFSSSDP | 0.699 ± 0.024
LCPVGLGFFVGL | 0.666 ± 0.056
LCRYFLRGVINT | 0.64998 ± 0.00026
LCTCRLSDVRIG | 0.6748 ± 0.0033
LDLLIVNFFNLV | 0.69 ± 0.13
LDLLRCIQHCVV | 0.637 ± 0.027
LDPPHTLPRSAP | 0.70982 ± 0.0002
LDSSPPCSSNCD | 0.736 ± 0.058
LDVFSLASRPDG | 0.5928 ± 0.0053
LDVSGEVRVGRG | 0.629 ± 0.013
LELADGRCARSG | 0.8 ± 0.065
LELTSDWRAYVY | 0.643 ± 0.052

Sequence | protein stability index
LESSLPIDSERC | 0.675 ± 0.055
LEVAGVLCSRVC | 0.56 ± 0.016
LEWGRGFGLWGG | 0.7823 ± 0.004
LEYRSCDFIDRS | 0.625 ± 0.057
LFAGTFTEYPLS | 0.641 ± 0.078
LFFLRSSSRGLW | 0.736 ± 0.055
LFHRAVVGRVRP | 0.634 ± 0.013
LFICETRLDSRY | 0.744 ± 0.13
LFLYLGSGARAV | 0.721 ± 0.019
LFPCPSMTLPRL | 0.706 ± 0.017
LFPFIPPRLPLP | 0.687 ± 0.01
LFPHSLLPPPFF | 0.73 ± 0.042
LFPRCPPPPLTT | 0.653 ± 0.053
LFPSSHFSLSLH | 0.767 ± 0.033
LFPSVCSTSSFS | 0.676 ± 0.034
LFQFFSPCRIPE | 0.749 ± 0.011
LFRPSFFFFVCQ | 0.548 ± 0.0027
LFRRPLLRPPPF | 0.745 ± 0.024
LFSHGFLYILGG | 0.696 ± 0.017
LFSHLLFPWLSR | 0.7545 ± 0.0048
LFSLPPRASFSL | 0.773 ± 0.043
LFTSLYWAFRSR | 0.679 ± 0.016
LGAAFHSLTRLV | 0.617 ± 0.066
LGAMTQEADGTG | 0.639 ± 0.078
LGARELTFALLR | 0.649 ± 0.0039
LGCSMSPYFVRF | 0.802 ± 0.074

Sequence | protein stability index
LGFCRLVFGVVG | 0.522 ± 0.01
LGFISGCGVFGT | 0.708 ± 0.026
LGFPLPRTPSIT | 0.792 ± 0.06
LGGGGGGGVAGD | 0.723 ± 0.069
LGGGVVCGVWGG | 0.704 ± 0.03
LGGWLWSPGVVV | 0.6355 ± 0.0056
LGILSERIGRAL | 0.7713 ± 0.0036
LGKSGLTILCRD | 0.5954 ± 0.003
LGLFGSVVVCGQ | 0.65 ± 0.015
LGLGSFPLMDLS | 0.738 ± 0.015
LGLQHPSAWLFP | 0.678 ± 0.045
LGNANKRPREIK | 0.718 ± 0.032
LGPFSVPCDPHF | 0.696 ± 0.04
LGPGGVAWGAWW | 0.7623 ± 0.0022
LGPPLLDLASLR | 0.719 ± 0.035
LGPRMYKRRDLR | 0.724 ± 0.023
LGRGGAASGRAL | 0.67 ± 0.062
LGSSGVVGYHLD | 0.71 ± 0.054
LGVGGRWVGPGA | 0.722 ± 0.027
LGVNYWIYSPHG | 0.689 ± 0.01
